Data reported in US10632208B2, “Peptide-mediated drug delivery across epithelial barrier” (Purdue Research Foundation, priority 2017, dated 2020).

Key:
[1] = tested on: Caco-2 cells; assay: Caco-2 cell viability assay (lactate dehydrogenase release); format: cell-based, human; conditions: Caco-2 cells treated with purified recombinant LAP
Experimental: Caco-2 cell viability assay. To determine Caco-2 viability, cell culture supernatants from Caco-2 cells infected with WT, lap^−, lap^−lap^+, ΔinlA and ΔinlA inlA^+ strains (MOI 50, 2 h) grown on Transwell inserts or treated with the purified recombinant LAP for 24 or 48 h were assayed for lactate dehydrogenase release (Thermo Fisher Scientific). Two controls were included for calculation of percent cytotoxicity (LDH release). Low control consisted of supernatant from untreated Caco-2 cells with no exposure to bacteria. High control was from cells treated with 0.1% Triton X-100 for one minute.

[2] = tested on: MLCK; assay: Immunoblot of MLCK and P-MLC in whole-cell Caco-2 lysates; format: cell-based, human; conditions: purified LAP 1 μg/mL, 60 min pi
Experimental: To extract the proteins from Caco-2 cells, cells were seeded in 6-well plates for 14-21 days. Following treatment, the cells were washed, scraped from the bottom of 6-well plates, suspended in PBS, and pelleted by centrifugation. Total protein from Caco-2 cells was extracted using the M-PER Extraction Kit (Thermo Fisher Scientific). Detergent-insoluble (membrane) and detergent-soluble (cytosolic) proteins were isolated using a Mem-Per Eukaryotic Protein Extraction Kit (Thermo Fisher Scientific) while the cytosolic and nuclear proteins were extracted using NE-PER Extraction Reagent (Thermo Fisher Scientific). To extract proteins from ileal epithelial cells, the epithelial cell fraction from ileal tissues were isolated as described above and the detergent-insoluble and the detergent-soluble proteins were isolated using a Mem-Per Eukaryotic Protein Extraction Kit.
To extract total protein from intact bacterial cells, sample solvent buffer and sonication (3 cycles of 20 min each) were used. […] The protein concentrations were determined by BCA assay (Thermo Fisher Scientific), and separated on SDS-PAGE gels (10-12.5% polyacrylamide) and electro-transferred to polyvinylidene difluoride (PVDF) membrane (Millipore). […] To compare the reaction intensities, the average band densities were determined using Quantity One software (Bio-Rad). […]

B1: LAP: Listeria adhesion protein, alcohol acetaldehyde dehydrogenase of Listeria monocytogenes, 866 aa, 94 kDa; recombinant, histidine-tagged form SEQ ID NO: 10 (protein)
chain: MAIKENAAQEVLEVQKVIDRLADNGQKALKAFESYNQEQVDNIVHAMALAGLDQHMPLAKLAVEETGRGLYEDKCIKNIFATEYIWNNIKNNKTVGVINEDVQTGVIEIAEPVGVVAGVTPVTNPTSTTLFKAIIAIKTRNPIIFAFHPSAQRCSSAAAKVVYDAAIAAGAPEHCIQWVEKPSLEATKQLMNHDKVALVLATGGAGMVKSAYSTGKPALGVGPGNVPAYIDKTAKIKRSVNDIILSKSFDQGMICASEQAVIVDKEVAKEVKAEMEANKCYFVKGAEFKKLESYVINPEKGTLNPDVVGKSPAWIANQAGFKVPEDTKILVAEIKGVGDKYPLSHEKLSPVLAFIEAANQAEAFDRCEEMLVYGGLGHSAVIHSTDKEVQKAFGIRMKACRIIVNAPSAQGGIGDIYNGFIPSLTLGCGSYGKNSVSQNVSATNLLNVKRIADRRNNMQWFKLPPKIFFEKYSTQYLQKMEGVERVFIVTDPGMGSFKYVDVVIEHLKKRGNDVAYQVFADVEPDPSDVTVYKGAELMKDFKPDTIIALGGGSAMDAAKGMWLFYEHPEASFFGLKQKFLDIRKRTFKYPKLGGKAKFVAIPTTSGTGSEVTPFAVITDKENNIKYPLADYELTPDVAIVDAQYVTTVPAHITADTGMDVLTHAIESYVSVMASDYTRGLSIRAIELVFENLRESVLTGDPDAREKMHNASALAGMAFANAFLGINHSLAHKIGPEFHIPHGRANAILMPHVIRYNALKPKKHALFPRYESFRADEDYARISRIIGFPAATTEEGVKSLVDEIIKLGKDVGIDMSLKGQNVAKKDLDAVVDTLADRAFMDQCTTANPKQPLVSELKEIYLEAYKGV
modifications: Listeria monocytogenes
**Q.** With B1 as the molecule, how does the “cytopathic or cytotoxic effects (LDH assay)” value [1] read?
**A.** without causing any cytopathic or cytotoxic effects

**Q.** What about the “increase of MLCK protein expression levels” value [2] of the same molecule?
**A.** 249±9%
